Experimental data published in patent publication US20200079833A1 (AstraZeneca / MedImmune, published 2020).
Starred links: 1 amine or outer side, 2 acyl side, 3 side chain; linkers in the order of their positions; H or OH if unused. Non-standard residues stand in square brackets, D forms with d. Groups on a side chain read outwards from the residue. Primed or numbered codes have the meaning given here. No end group written: not given here. *: point of attachment. γGlu = O=C(O)[C@H](CCC(=O)[*:2])N[*:1]; Stearoyl = CCCCCCCCCCCCCCCCCC(=O)*; αMeF = C[C@](N)(Cc1ccccc1)C(=O)O; αMeK = C[C@](N)(CCCCN)C(=O)O; αMeS = C[C@](N)(CO)C(=O)O; PEG2′ = not defined here; Aib = CC(C)(N)C(=O)O; Ahx = NCCCCCC(=O)O

T1: glucose-dependent insulinotropic peptide (gastric inhibitory polypeptide) receptor (GIPR) (human, UniProt P48546 22-466)
T1 sequence (looked up): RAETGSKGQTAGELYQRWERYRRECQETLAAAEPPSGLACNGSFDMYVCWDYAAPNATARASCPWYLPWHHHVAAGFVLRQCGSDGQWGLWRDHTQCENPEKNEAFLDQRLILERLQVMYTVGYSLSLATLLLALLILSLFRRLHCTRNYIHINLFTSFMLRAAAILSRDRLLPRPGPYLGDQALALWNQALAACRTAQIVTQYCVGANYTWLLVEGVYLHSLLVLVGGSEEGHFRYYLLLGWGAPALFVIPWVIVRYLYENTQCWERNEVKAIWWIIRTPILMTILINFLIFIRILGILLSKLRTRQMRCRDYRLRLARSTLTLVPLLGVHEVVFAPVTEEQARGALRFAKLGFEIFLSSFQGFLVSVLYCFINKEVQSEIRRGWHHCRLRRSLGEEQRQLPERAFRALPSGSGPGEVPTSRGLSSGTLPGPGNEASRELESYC

B1: SEQ ID NO 193 (peptide)
peptide: H[Aib]EGS[αMeF]TSDV[αMeS]S[αMeF]LEGEAA[αMeK]E[αMeF]IA[αMeF]VVK([γGlu-γGlu-γGlu-Stearoyl])GG-NH2
modifications: N-terminus assumed
SMILES: CCCCCCCCCCCCCCCCCC(=O)N[C@@H](CCC(=O)N[C@@H](CCC(=O)N[C@@H](CCC(=O)NCCCC[C@H](NC(=O)[C@@H](NC(=O)[C@@H](NC(=O)[C@](C)(Cc1ccccc1)NC(=O)[C@H](C)NC(=O)[C@@H](NC(=O)[C@](C)(Cc1ccccc1)NC(=O)[C@H](CCC(=O)O)NC(=O)[C@](C)(CCCCN)NC(=O)[C@H](C)NC(=O)[C@H](C)NC(=O)[C@H](CCC(=O)O)NC(=O)CNC(=O)[C@H](CCC(=O)O)NC(=O)[C@H](CC(C)C)NC(=O)[C@](C)(Cc1ccccc1)NC(=O)[C@H](CO)NC(=O)[C@](C)(CO)NC(=O)[C@@H](NC(=O)[C@H](CC(=O)O)NC(=O)[C@H](CO)NC(=O)[C@@H](NC(=O)[C@](C)(Cc1ccccc1)NC(=O)[C@H](CO)NC(=O)CNC(=O)[C@H](CCC(=O)O)NC(=O)C(C)(C)NC(=O)[C@@H](N)Cc1c[nH]cn1)[C@@H](C)O)C(C)C)[C@@H](C)CC)C(C)C)C(C)C)C(=O)NCC(=O)NCC(N)=O)C(=O)O)C(=O)O)C(=O)O
B2: SEQ ID NO 192 (peptide)
peptide: H[Aib]EGS[αMeF]TSDV[αMeS]S[αMeF]LEGEAA[αMeK]E[αMeF]IA[αMeF]VVK([γGlu-γGlu-Stearoyl])GG-NH2
modifications: N-terminus assumed
SMILES: CCCCCCCCCCCCCCCCCC(=O)N[C@@H](CCC(=O)N[C@@H](CCC(=O)NCCCC[C@H](NC(=O)[C@@H](NC(=O)[C@@H](NC(=O)[C@](C)(Cc1ccccc1)NC(=O)[C@H](C)NC(=O)[C@@H](NC(=O)[C@](C)(Cc1ccccc1)NC(=O)[C@H](CCC(=O)O)NC(=O)[C@](C)(CCCCN)NC(=O)[C@H](C)NC(=O)[C@H](C)NC(=O)[C@H](CCC(=O)O)NC(=O)CNC(=O)[C@H](CCC(=O)O)NC(=O)[C@H](CC(C)C)NC(=O)[C@](C)(Cc1ccccc1)NC(=O)[C@H](CO)NC(=O)[C@](C)(CO)NC(=O)[C@@H](NC(=O)[C@H](CC(=O)O)NC(=O)[C@H](CO)NC(=O)[C@@H](NC(=O)[C@](C)(Cc1ccccc1)NC(=O)[C@H](CO)NC(=O)CNC(=O)[C@H](CCC(=O)O)NC(=O)C(C)(C)NC(=O)[C@@H](N)Cc1c[nH]cn1)[C@@H](C)O)C(C)C)[C@@H](C)CC)C(C)C)C(C)C)C(=O)NCC(=O)NCC(N)=O)C(=O)O)C(=O)O
B3: SEQ ID NO 195 (peptide)
peptide: H[Aib]EGS[αMeF]TSDV[αMeS]S[αMeF]LEGEAA[αMeK]E[αMeF]IA[αMeF]VVK([Ahx-Ahx-Stearoyl])GG-NH2
modifications: N-terminus assumed
SMILES: CCCCCCCCCCCCCCCCCC(=O)NCCCCCC(=O)NCCCCCC(=O)NCCCC[C@H](NC(=O)[C@@H](NC(=O)[C@@H](NC(=O)[C@](C)(Cc1ccccc1)NC(=O)[C@H](C)NC(=O)[C@@H](NC(=O)[C@](C)(Cc1ccccc1)NC(=O)[C@H](CCC(=O)O)NC(=O)[C@](C)(CCCCN)NC(=O)[C@H](C)NC(=O)[C@H](C)NC(=O)[C@H](CCC(=O)O)NC(=O)CNC(=O)[C@H](CCC(=O)O)NC(=O)[C@H](CC(C)C)NC(=O)[C@](C)(Cc1ccccc1)NC(=O)[C@H](CO)NC(=O)[C@](C)(CO)NC(=O)[C@@H](NC(=O)[C@H](CC(=O)O)NC(=O)[C@H](CO)NC(=O)[C@@H](NC(=O)[C@](C)(Cc1ccccc1)NC(=O)[C@H](CO)NC(=O)CNC(=O)[C@H](CCC(=O)O)NC(=O)C(C)(C)NC(=O)[C@@H](N)Cc1c[nH]cn1)[C@@H](C)O)C(C)C)[C@@H](C)CC)C(C)C)C(C)C)C(=O)NCC(=O)NCC(N)=O
B4: SEQ ID NO 194 (peptide)
peptide: H[Aib]EGS[αMeF]TSDV[αMeS]S[αMeF]LEGEAA[αMeK]E[αMeF]IA[αMeF]VVK([Ahx-Stearoyl])GG-NH2
modifications: N-terminus assumed
SMILES: CCCCCCCCCCCCCCCCCC(=O)NCCCCCC(=O)NCCCC[C@H](NC(=O)[C@@H](NC(=O)[C@@H](NC(=O)[C@](C)(Cc1ccccc1)NC(=O)[C@H](C)NC(=O)[C@@H](NC(=O)[C@](C)(Cc1ccccc1)NC(=O)[C@H](CCC(=O)O)NC(=O)[C@](C)(CCCCN)NC(=O)[C@H](C)NC(=O)[C@H](C)NC(=O)[C@H](CCC(=O)O)NC(=O)CNC(=O)[C@H](CCC(=O)O)NC(=O)[C@H](CC(C)C)NC(=O)[C@](C)(Cc1ccccc1)NC(=O)[C@H](CO)NC(=O)[C@](C)(CO)NC(=O)[C@@H](NC(=O)[C@H](CC(=O)O)NC(=O)[C@H](CO)NC(=O)[C@@H](NC(=O)[C@](C)(Cc1ccccc1)NC(=O)[C@H](CO)NC(=O)CNC(=O)[C@H](CCC(=O)O)NC(=O)C(C)(C)NC(=O)[C@@H](N)Cc1c[nH]cn1)[C@@H](C)O)C(C)C)[C@@H](C)CC)C(C)C)C(C)C)C(=O)NCC(=O)NCC(N)=O
B5: SEQ ID NO 191 (peptide)
peptide: H[Aib]EGS[αMeF]TSDV[αMeS]S[αMeF]LEGEAA[αMeK]E[αMeF]IA[αMeF]VVK([γGlu-Stearoyl])GG-NH2
modifications: N-terminus assumed
SMILES: CCCCCCCCCCCCCCCCCC(=O)N[C@@H](CCC(=O)NCCCC[C@H](NC(=O)[C@@H](NC(=O)[C@@H](NC(=O)[C@](C)(Cc1ccccc1)NC(=O)[C@H](C)NC(=O)[C@@H](NC(=O)[C@](C)(Cc1ccccc1)NC(=O)[C@H](CCC(=O)O)NC(=O)[C@](C)(CCCCN)NC(=O)[C@H](C)NC(=O)[C@H](C)NC(=O)[C@H](CCC(=O)O)NC(=O)CNC(=O)[C@H](CCC(=O)O)NC(=O)[C@H](CC(C)C)NC(=O)[C@](C)(Cc1ccccc1)NC(=O)[C@H](CO)NC(=O)[C@](C)(CO)NC(=O)[C@@H](NC(=O)[C@H](CC(=O)O)NC(=O)[C@H](CO)NC(=O)[C@@H](NC(=O)[C@](C)(Cc1ccccc1)NC(=O)[C@H](CO)NC(=O)CNC(=O)[C@H](CCC(=O)O)NC(=O)C(C)(C)NC(=O)[C@@H](N)Cc1c[nH]cn1)[C@@H](C)O)C(C)C)[C@@H](C)CC)C(C)C)C(C)C)C(=O)NCC(=O)NCC(N)=O)C(=O)O
B6: SEQ ID NO 196 (peptide)
peptide: H[Aib]EGS[αMeF]TSDV[αMeS]S[αMeF]LEGEAA[αMeK]E[αMeF]IA[αMeF]VVK([Ahx-Ahx-Ahx-Stearoyl])GG-NH2
modifications: N-terminus assumed
SMILES: CCCCCCCCCCCCCCCCCC(=O)NCCCCCC(=O)NCCCCCC(=O)NCCCCCC(=O)NCCCC[C@H](NC(=O)[C@@H](NC(=O)[C@@H](NC(=O)[C@](C)(Cc1ccccc1)NC(=O)[C@H](C)NC(=O)[C@@H](NC(=O)[C@](C)(Cc1ccccc1)NC(=O)[C@H](CCC(=O)O)NC(=O)[C@](C)(CCCCN)NC(=O)[C@H](C)NC(=O)[C@H](C)NC(=O)[C@H](CCC(=O)O)NC(=O)CNC(=O)[C@H](CCC(=O)O)NC(=O)[C@H](CC(C)C)NC(=O)[C@](C)(Cc1ccccc1)NC(=O)[C@H](CO)NC(=O)[C@](C)(CO)NC(=O)[C@@H](NC(=O)[C@H](CC(=O)O)NC(=O)[C@H](CO)NC(=O)[C@@H](NC(=O)[C@](C)(Cc1ccccc1)NC(=O)[C@H](CO)NC(=O)CNC(=O)[C@H](CCC(=O)O)NC(=O)C(C)(C)NC(=O)[C@@H](N)Cc1c[nH]cn1)[C@@H](C)O)C(C)C)[C@@H](C)CC)C(C)C)C(C)C)C(=O)NCC(=O)NCC(N)=O

Experiments:
Test in all cases: cell-based or functional assay
GLP-1 receptor (GLP-1R) = GLP-1 receptor (GLP-1R) (human, UniProt P43220 24-463)
[1] = molecular target: T1, glucose-dependent insulinotropic …
glucagon receptor (GCGR) = glucagon receptor (GCGR) (human, UniProt P47871 26-477)
glucagon receptor (GCGR), sequence (P47871 26-477): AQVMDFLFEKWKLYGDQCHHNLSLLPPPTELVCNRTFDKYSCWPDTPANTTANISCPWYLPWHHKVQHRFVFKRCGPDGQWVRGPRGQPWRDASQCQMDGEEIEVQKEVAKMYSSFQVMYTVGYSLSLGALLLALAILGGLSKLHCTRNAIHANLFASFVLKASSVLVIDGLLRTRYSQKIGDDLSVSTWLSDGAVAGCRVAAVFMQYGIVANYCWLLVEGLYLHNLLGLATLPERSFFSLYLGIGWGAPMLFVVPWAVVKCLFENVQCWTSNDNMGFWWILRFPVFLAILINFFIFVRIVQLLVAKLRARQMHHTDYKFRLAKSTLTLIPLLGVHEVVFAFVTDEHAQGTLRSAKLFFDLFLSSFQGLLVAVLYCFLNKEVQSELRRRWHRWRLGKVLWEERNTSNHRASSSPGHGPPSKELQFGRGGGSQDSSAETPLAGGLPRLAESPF

Binder	Primary assay EC50 (cAMP), GLP-1R n1 (GLP-1 receptor (GLP-1R)) [pM]	Primary assay EC50 (cAMP), GLP-1R n2 (GLP-1 receptor (GLP-1R)) [pM]	Primary assay EC50 (cAMP), Mean pM GLP-1R (GLP-1 receptor (GLP-1R)) [pM]	Primary assay EC50 (cAMP), GIP-R, first run [1] [nM]	Primary assay EC50 (cAMP), GIP-R, second run [1] [nM]	Primary assay EC50 (cAMP), Gluc-R, first run (glucagon receptor (GCGR)) [nM]	Primary assay EC50 (cAMP), Gluc-R, second run (glucagon receptor (GCGR)) [nM]
B1	330	95	213	26	26	26	26
B2	170	60	114	27	27	27	27
H[Aib]EGS[αMeF]TSDV[αMeS]S[αMeF]LEGEAA[αMeK]E[αMeF]IA[αMeF]VVK([PEG2′-Stearoyl])GG-NH2 [SEQ ID NO 197]	120	34	79	27	27	27	27
B3	170	46	107	27	27	27	27
B4	240	68	154	28	28	28	28
B5	250	110	182	28	28	28	28
B6	190	63	125	26	26	26	26
